Test results taken from the supplement of paper PMC12042874.
± gives the uncertainty stated by the source.

Assay: amyloid nucleation score (Sup35N fusion, yeast selection) (log enrichment); library NNK3; higher = more nucleation; inactive = no reads after selection
Procedure, shortened: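 The nucleation score is a DiMSum log enrichment of output over input reads, centred on the mode score of non-aggregating sequences. Sequences under 100 input reads were excluded, and reads came from Illumina sequencing of plasmid inserts. Psi-negative yeast expressing Sup35N fused to peptides of 20 random codons were induced with 100 μM copper sulfate for 24 hours and grown 7 days at 30°C on medium lacking adenine and uracil. Random libraries had three technical output replicates.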

Substance | amyloid nucleation score
FNIHSQIAFLFLCGYLESTV | 1.94 ± 0.075
DQYLTVSHKTTTFRMCPQSG | inactive
PFCVGIQFDSEKPLVYFNLL | inactive
GFDMRVGDRMYRDYGMMVGA | inactive
CVPWWLNMPVLDCTLWNSSV | inactive
DIHVKNCVVCMYSG | 2.44 ± 0.057
SNMIRVRWRVAFRGWMARCL | inactive
RLSNVSTMGGMRIPDLLEM | inactive
FYPKQYQKLSYVWWY | inactive
YDSRFTKLTCQSPINWHKEV | inactive
KRKRVK | inactive
RYLGWFLKCTACRDHSEFII | inactive
FSIPCDFDDNFATQELS | inactive
ARSIFEVTRHEAAGRMSVFS | -0.01 ± 0.96
GCFNGNSYRSLPFWFMSTCL | inactive
CNVLEKYTLE | inactive
YQMTNCSLFFTTLYSVNYDY | 2.81 ± 0.082
YCCTLVTRCSVMNTL | 2.46 ± 0.065
FWHNSG | inactive
FSYLLYRRNDTCPQALRLRR | inactive
SGNNMRLHTTGLVASNGLGS | inactive
TTFSLTLIGFNDSGVKLLM | 2.21 ± 0.069
INYCALARFLMNECLCPICT | inactive

Substance | amyloid nucleation score
RFFLYFNCAWVILMWCKRIV | inactive
CMSDF | inactive
ISRSGNLLGYKDLLVATKSG | inactive
NLNYNLSPLTEYSVSD | inactive
VLKLRVKVNQVVVDYVLESG | inactive
SILKDS | inactive
LENNIRSDSTFSTWTHDQCQ | inactive
KPPQNILVDMRLEGSMC | inactive
MWMLLFGCSSCWWSCNRLSP | -0.239 ± 0.8
ACAGMDCKGYMFLWSFGRAW | inactive
ACSLAFLHICHRHF | 0.712 ± 0.39
MFFAGKTPGHVHVWNSANTR | inactive
LFSGSHWCRDNMWSSGAIDA | inactive
GLAASSTNAFTRHVLNRV | 1.51 ± 0.13
GTNDSDFESWNVFKCINCLA | inactive
ELAHKIMAM | inactive
SCCCDFYTTRKNQRCVHRFR | inactive
PLRVRNQYRRLMISANQPDW | inactive
FIIISIYGCIIVRWTKRAWG | inactive
LCPVMLDRRSARSKGPALIL | inactive
RKLSNIYFVIGDGMWGSHGW | 2.32 ± 0.06
RRWGFCTLVIVCRAGCYVLS | inactive
KSGTGSNWFWKGGLSGTKKH | inactive

Substance | amyloid nucleation score
SETDFYHGFIWGIPIGALSG | inactive
SRPFICSPFQIWAFKFTPMN | inactive
WVGLCFLRFQVHSTSDESVS | inactive
WKNLSYRGFHYWTALWHMVR | -0.12 ± 1
LRCGSSSDELCMREWFRVDL | inactive
FLPDSFESYEKEVHTMDESS | inactive
STIVGGSLCFPIASVTFNSC | 2.2 ± 0.079
SVYVNAYEHNKGGFTRNIHI | inactive
SLLTDTFFIVLWTFT | inactive
SFRSNVGFEVFLIATELRFC | inactive
YFRVAFCTHGFIMARCAFSS | inactive
HAFEYVFISVTYQFNVKVIV | inactive
SLTVFLWVAQRVAAMRAGVL | inactive
VKYSLALVSGNRARGYRRCG | inactive
KFGSLVKTYFRDMFRSILCW | inactive
WQLAGYWLEWSIRPEGALDD | inactive
VWPQNLNPICKSNLTRCVGC | inactive
SLYVSVLYIYRDY | 1.77 ± 0.077
YIAVMILLCHVKHEMSLLII | 2.71 ± 0.055
CRCMTR | inactive
PDGTQINFN | inactive
GSGEVWWVGCRTFFKTG | inactive
DVNFSLC | -0.002 ± 0.32

Substance | amyloid nucleation score
LCVIWIVSHRRDCMAFCEQQ | inactive
TNSFAYNWLNAW | inactive
FWFFTSMLVSVCLMRASRCL | inactive
GKINLVTCFVCLSTPFKHSL | 1.74 ± 0.067
FILSVWLYTS | inactive
WFWLRRSFGFYHVKSSNSFT | inactive
QLNGCYCQFWMMKARTTKFH | 2.86 ± 0.054
NNIVNSLYFEMGYGVN | inactive
AVFRLSSTISECDLHACAPV | inactive
SYCGSSASSASTLEIRYTLA | 0.875 ± 0.12
TFGWINVAYSYSFSICGCTG | 2.62 ± 0.051
GNCSWRVYGISSGFLRHGAV | inactive
RMGWSTGILCRVDTLFITML | inactive
FITGCSYVAYFMIAA | inactive
VWHMGWKLPDS | -0.39 ± 0.56
PHCPELEQQVKCGTS | 0.178 ± 0.26
MPGAALLVVLFSGFVYREAM | inactive
LTFGTCFGPYYGVYPNLFIM | inactive
EGPNTVNCPTAS | inactive
ISIPLLIMLPELGTASMVNG | inactive
CYYTKVNVSS | 0.021 ± 0.26
VALWLVWLFYMRFRGSSFEL | inactive
VIRSNYWHTLNWLQQNKSRG | inactive

Substance | amyloid nucleation score
YFLGWRYQCDIVIFWYQLRV | inactive
GHIWFIAEVNSICYLLFLVS | inactive
SVMHKSRSRGFNRNDGSVRV | inactive
LQFGVRINSLFYRMVSAVVG | inactive
VSLFYKCSYNGVYNNRVLAP | 1.43 ± 0.09
SFKATV | inactive
YSRSTSSEMEAERGSAWLES | inactive
NWFTMSNFMFYRTFCFIYSS | inactive
VIGWKINGGYPERTS | 0.239 ± 0.42
RYEFS | inactive
MFMVAIGAYEGCSGRRHREV | -0.238 ± 0.64
FRILIIFSVYGSMISHLP | inactive
NVMDCSYITNVNIYSHHWDY | 2.1 ± 0.055
VDYLRVLWQAQFGNFELWSR | inactive
MGISLMFESERVSVYEHGNL | inactive
LSIVLGEDLMRCTRSDSVWK | inactive
FFNDSYIRYFSCM | 0.02 ± 0.77
KDLQR | inactive
YSGKNLVRSTAGGAVKPVC | inactive
SLGSNEKYWERRVSSHNWTT | inactive
TRFVTRNDMYLRYILVCRVA | inactive
VNCWLLAVFTASSATLHNTR | 0.776 ± 0.14
VRSTTQHVHLICCNEYFRH | 2.82 ± 0.052

Substance | amyloid nucleation score
GRAHQFLISSFLSPGGPLMR | inactive
LSNHSSLASRSYFTNCN | inactive
HVGLRAKLTFLDRVYLSILS | inactive
IVSALQFAEAKL | inactive
LNIFTYMCVMALMCLEKITS | 1.73 ± 0.11
TMHLTHRYSTVLRESLVGSR | inactive
SAYRKTHHSCYNVLYVFMMC | 1.49 ± 0.082
NRVFPANLSSLSSCSTFTLW | inactive
ACESCSFTSWRTYLCSKVRT | -0.172 ± 1.5
RQHFRYHGIFAEFGSTFVRS | inactive
DDGFYMSVGIVSWFC | 0.843 ± 0.13
GIFTLFYYVMMKLIFDFFTV | inactive
GTTYTAHYAWSTVGDIWSLH | inactive
ASHDKGFYLGSCTYLYGLRL | inactive
SRELNYVVAWIL | inactive
LSLAS | inactive
FCRQCNIVLFDQSVSL | 1.87 ± 0.11
YFVYEG | inactive
LWGYGL | inactive
DEMLHGCPDRVPNLGWY | inactive
GGWLLSEGLC | inactive
KYNFNYPEITLAPTYYMSIT | inactive
YILMDFSYADLSFVLEIFFA | 0.09 ± 0.64

Substance | amyloid nucleation score
LACSMLCVDPIADGHNFSYS | inactive
ICELLRFDPMLTCFRM | 0.77 ± 0.2
GPMNLMRSVRYALSRSYLLL | inactive
YNFTSFLLIAGNAGSSSSRK | 2.04 ± 0.073
WLELVSCS | inactive
SGKGE | inactive
GGYVRSNCGRGVVPMVTRMA | inactive
VRSFFYRSLYQCISRNPCCA | inactive
LSFYMVKGLKNKI | inactive
WSEHGQWMYNRLCGSGFISH | inactive
KISAIVSYPAYVIIVHRLWH | inactive
RSSLNDNRYKCNSGSSVYGS | inactive
VNCLLSRWCGRHA | inactive
MFVDSSISGIEIR | inactive
RIYLA | inactive
LMRNSMLKTCFRSTAFH | inactive
CKYLPLRNYGSCSPGYGKYV | inactive
SYCLYKLQLLWHDNHGFGYN | inactive
ANGLAGDYE | -0.578 ± 1.3
